Test results from the DeepSol protein solubility set.

test: soluble on expression in E. coli; label from the status in PepcDB or PDB records

Row | Sequence | soluble on expression in E. coli
1 | MSLEQFNVWFTVSEVQGLVKSGGLADVAKALPQALKALHQQVAIALPAYRSVPGKEDAELVLETELTHWPHTQYRVLKRDLDGVPIYLIDCPAYFDRPALYAENNQAYADNGERFGFFSAACLDVLPKLGIQPDIIHANDWHTGLVPFLLKTRYRYDSFFEQVKSVLTVHNAIFKGIFSYHQLEVIPELNLSGMEFLQYGHDHVSMLRAGIAFADKVNAVSPNYAAELLTPLGAHGLVDDFVRRARDLHGIVNGCDYSEWNPRTDHYLPATYSDEPESMRKGKALCKTALQEELHLPVTDVPLFGMVCRLTHQKGFHYLLPILEQFLRNNVQVVIVGTGEPEVAARLNKIAHYHRAKFAFVETYSERLAHWVEAGSDFFLMPSEFEACGLNQIYSMAYGTLPIVREVGGLKDTVNDYDKFPERATGFGYQEPTPEALLITMQRALLFYLQQPEEMLKVQQRAMQQNFSWEESAQEYMKMYRLARFEGHHHHHH | soluble
2 | MARLAAFDMDGTLLMPDHHLGEKTLSTLARLRERDITLTFATGRHALEMQHILGALSLDAYLITGNGTRVHSLEGELLHRDDLPADVAELVLYQQWDTRASMHIFNDDGWFTGKEIPALLQAFVYSGFRYQIIDVKKMPLGSVTKICFCGDHDDLTRLQIQLYEALGERAHLCFSATDCLEVLPVGCNKGAALTVLTQHLGLSLRDCMAFGDAMNDREMLVSVGSGFIMGNAMPQLRAELPHLPVIGHCRNQAVSHYLTHWLDYPHLPYSPE | soluble
3 | MAYCNPGLESRPNKRNALRRHVVTGIGMKIVIAPDSYKESLSASEVAQAIEKGFREIFPDAQYVSVPVADGGEGTVEAMIAATQGAERHAWVTGPLGEKVNASWGISGDGKTAFIEMAAASGLELVPAEKRDPLVTTSRGTGELILQALESGATNIIIGIGGSATNDGGAGMVQALGAKLCDANGNEIGFGGGSLNTLNDIDISGLDPRLKDCVIRVACDVTNPLVGDNGASRIFGPQKGASEAMIVELDNNLSHYAEVIKKALHVDVKDVPGAGAAGGMGAALMAFLGAELKSGIEIVTTALNLEEHIHDCTLVITGEGRIDSQSIHGKVPIGVANVAKKYHKPVIGIAGSLTDDVGVVHQHGIDAVFSVLTSIGTLDEAFRGAYDNICRASRNIAATLAIGMRNAG | soluble
4 | MLKIGVITMALLSFLNAGWLGNLFDSTPTPYYKMPIDLSKAGNVTETDIRIDEKYSVYVELYYDYRKQKISGDRYGEIIDKYFGRHKLFPIFPIKLTVLKYEKTGTTMVVDKIYYTNSLGRTYSSREIDEFKLQEGSKYHIKVETVEDYPELAELNVEVVIGYIKAK | not soluble
5 | ISNRIKGKTVLVTGAGGSIGSEICRQISAFQPKEIILLGHGENSIHSIYTELNGRFGKHIVFHTEIADVQDRDKMFTLMKKYEPHVVYHAAAHKHVPLMEHNPEE | not soluble
6 | MQVASRVKARRLEMNLTQEGIALRAGMKLPTYRRFERTGEISFRGLLQIGFALNALQDFALLFDQRLYQTLDEVLAEQQPKRKRGSKK | not soluble
7 | MGSDKIHHHHHHMPDTEEIARDSVVPPDVRRQAVNWLVELQSDIVTDETRDQWQKWRMSHPDHEYAWQQVEVFSRKLRGLPSPLAHAALTPPHSSSRRRAIKALTVLIFLGGGTWVAGEGRLWCWWPEDYCTGIGEHRAVTLSDGTGIELNSGSAITVNFDDTRRLIRLMNGEIMVTTAPDPRLANGIGAARPLLIETAQGILRAIGTRFTVRQFDVSQQGKSSVAVFEGAVEIQPITGRLRQLEVGQQAAFTRDGVIAVGMACEADTAWRQGMIVARDMPLIDFLAELGRHRSGWLSCDPAVAQLKVTGTYPLADIGKILAILQKTLPIDVQLFTRYWIRVGARQEDT | not soluble
8 | ASVKAVGRVCYSALPSQAHDTLDLIDEGGPFPYSQDGVVFQNREGLLPAHSTGYYHEYTVITPGSPTRGARRIITGQQWQEDYYTADHYASFRRVDFAC | soluble
9 | RIWRIIPDTSVIIDGRLSSRIKSGEFGSAEVIIPEAVVSELEAQANKGREIGFKGLEELSELRKLADRGDIQLKFSGVQPSLEEIKLSREGRVDALIRQTALDEGGLFVSEDRVQSLIARAKGLDVEYMHPKV | not soluble
10 | MSENIRESISAKTLSKDQMETSYVSLKTWIEDSLDLFKNDLLPLLYPLFIHIYFDLIQQNKTDEAKEFFEKYRGDHYNKSEEIKQFESIYTVQHIHENNFAYTFKNSKYHLSMGRYAFDLLINFLEERNLTYILKILNQHLDIKVYVGPKSEERPQGIETSVVDAEIDLTTFLVSRECEDAILGDEQYRYDHLETYVLQLRKQREMKPKDSVYKPNASQIHAEIEKLKDLCKRVAVNKNNLPSICCYTIHNTYEGLTAAEISNDLKLMACGFKDSYVEVYSLTNESLKKLKSSSELAKSDIKTLNEEKFEEVGSSYKLVGHSGPVYGLKFFSSNKFLVSSSQDCTVCLWSLDLLCLLAVYKAHAFPVWCVDVAPNDYFFASGAGDRQAIVWSVMTSKPERLIISSLSDVTAVKFHPNSSYLFTGSSDHRVRMHDISTASVVRIFCGHTDTVTCMDVSHCGKFLASGSKDRTVLLWDIQSSKLLGKYVGHENTVFSVSFCFYGSVLASCGADNSVRLWDRTDHKGGCLGTYYTKNTPLLCVKFGYRNIISCTGPFIS | soluble
11 | MSLKITIRDIAKQAEVSISTVSFVINGKGEKMAISPAVIKKVQDVAQKLQYKPSMIASSLRTGKTRSIGLIVEDISNQFFADLARVIEDEAKNINYRVFYCSTGDDNDRSEELVQSLLQANVEGFIITPTRNLEKTISQLLKLQKPVVLIDRYFANQKVSHVVMDNYEGSYSAVKFLISKGRKNIAVVNNKSGMIQMKLREKGYVEALKEEGIYNEKYTLLLDYHSSEKTRIEEIINFFNQNKEIDAVLFCANYMGLAGLQAFRTLNYKIPNDISVISFDDHDSFKLHTPTISVIAQPIEDIAVESIQLLMSQMTNFEDFKIEKVLKKGTLIIRESVEGHHHHHH | soluble
12 | PPIHPLTRAKLPDPYLMPVVSWNQSPQPPTTKEDALAKNPNREPIRCVDYHPFGVIGGRDILYGIVWGTRTA | not soluble
13 | MSLKHLTEMVRQHKAGKTNGIYAVCSAHPLVLEAAIRYASANQTPLLIEATSNQVDQFGGYTGMTPADFRGFVCQLADSLNFPQDALILGGDHLGPNRWQNLPAAQAMANADDLIKSYVAAGFKKIHLDCSMSCQDDPIPLTDDIVAERAARLAKVAEETCLEHFGEADLEYVIGTEVPVPGGAHETLSELAVTTPDAARATLEAHRHAFEKQGLNAIWPRIIALVVQPGVEFDHTNVIDYQPAKASALSQMVENYETLIFEAHSTDYQTPQSLRQLVIDHFAILKVGPALTFALREALFSLAAIEEELVPAKACSGLRQVLEDVMLDRPEYWQSHYHGDGNARRLARGYSYSDRVRYYWPDSQIDDAFAHLVRNLADSPIPLPLISQYLPLQYVKVRSGELQPTPRELIINHIQDILAQYHTACEGQEGHHHHHH | soluble
14 | MRKKLLSIALCATMVAGIFTGCGSSSDTSKKDEGKSADGKITLNVINYHVGTDYAADYYEYLFDAFKKTEEGKNVEFKFEEIPTTDAYNQKIKLLISSGDLPDIVLNGGNNITALAAKSGKVTDITEYLDKDPEWKAMFSDQDLEFNSYEGKVYGIPVSKEISYIYYNKDLFKKAGLEAPDVAYETWDDFYKACDTLKSKNITPVSMDTADLGWLSNLWYSGLIGTAGEEGNKFMNTMYPTDYTSDLVVNATEQLQKMLKNYTTSDAAGGKYDTMATHFFNSEVAMLPNGPWMIPDFKSTDKAPEGFYDKVGIMLLPGSGMESVPTPGDMVGTKDPEKVKAAVAFLKFETTAENQLKALEMAGLQPVSSNIEVPDSLKESDPLMAEVLDIQSKAKYTYGQNQAYWYQNVIDTFSTQLPELAYGNMTAKEFCQKLTDAAKKN | not soluble
15 | GMGKGKSAIESQIRMLKLAKEIVEEVASSFPNLEEVYIFGSRARGDYLDTSDIDILFVFKGIKEMNVFDRMYMVSRFIRGNVDYIVLDEGEKDRVKDKVLFWKREKGFVLL | soluble
16 | MGSDKIHHHHHHMKWEEKRDMVKIATWYYHYGWTQAQIAKKIGISRSIISKTLQRAKDLGIVEIFIKDETYYTVDLEQKLEEKFGLEEAIVVATHDMSEEEALNFLAKEAAYTLSKRIAKVKTLGISWGKTIRKFANEFPFIPHKDLTIIPLIGGMGSSDIDLHSNQICYDLKKKMKCHSKYLYAPALVEDTEMKTDLSKNKYISEVLEEGKTVDMAIVGVSSPYNHSTMEEIGYINSEDIEELRYKDVVGDINSRFFTADGKEAKTEINTHVIGLSLEELKNIPTVVALANGLQKKEALVAALNAGLIDVIVITDRMAEYILQKND | not soluble
